Data: paper PMC9063849, “Crystal structure of the middle and C-terminal domains of Hsp90α labeled with a coumarin derivative reveals a potential allosteric binding site as a drug target” (Acta Crystallographica. Section D, Structural Biology, 2022)

Tests used:
[1] = target: the molecule itself; assay: crystal structure; MDCC-labelled Hsp90αMC crystallised in 0.1 M succinic acid pH 6.5, 12% PEG 3350, 20 mM calcium chloride; 3.5 Å; hexamer through crystallographic symmetry
[2] = target: the molecule itself; assay: SEC; size-exclusion chromatography of the purified protein, 20 mM HEPES Na pH 7.2, 150 mM NaCl
[3] = target: the molecule itself; assay: dynamic light scattering; 3 mg/ml Hsp90αMC in 20 mM HEPES pH 7.2, 150 mM NaCl, 25°C; without or with 0.5 mM inhibitors (chlorobiocin, derrubone, coumermycin A1 or MDCC; 5% DMSO); dimers to hexamer
[4] = target: the molecule itself; assay: SEC + other: dynamic light scattering; Hsp90αC+ at 1.0 mg/ml and FL Hsp90α at 2.1 mg/ml for DLS, 20 mM HEPES pH 7.2, 150 mM NaCl, 25°C; without inhibitors

B1: MDCC–Hsp90αMC (Hsp90α 293–699 covalently linked to MDCC at Cys374) (domain or fragment)
chain: not shown
modifications: MDCC {7-diethylamino-3-[N-(2-maleimidoethyl)carbamoyl]coumarin} covalently linked to Cys374
notes: Hsp90α, human, residues 293-699 (middle and C-terminal domains), labelled with MDCC at Cys374; Three molecules in the asymmetric unit; the hexamer is formed through crystallographic symmetry; also called MDCC-labeled Hsp90αMC; source: E. coli, purified; 0.2 mM Hsp90αMC incubated with 0.5 mM MDCC on ice for 30 min, supernatant used; not shown: 6xHis, N-terminal, cleaved
- stoichiometry N [1]: 6

B2: Hsp90α_293–699 (Hsp90αMC), middle and C-terminal domains of human Hsp90α (domain or fragment)
chain: not shown
notes: Hsp90α (90 kDa heat-shock protein alpha), human, residues 293-699 (middle and C-terminal domains); TEV site between the tag and the protein; also called Hsp90α MD and CTD; apo Hsp90αMC; source: E. coli, purified (Ni-NTA, TEV cleavage, second Ni-NTA, size-exclusion chromatography); not shown: 6xHis, N-terminal, cleaved
- stoichiometry N [2]: 2
- stoichiometry N [3]: 6

B3: Hsp90α_23–699_E47A (FL Hsp90α) (domain or fragment)
chain: not shown
notes: Hsp90α, human, residues 23-699 with E47A; N-terminal truncation (printed as Δ23) and C-terminal tail removed; also called full-length (FL) Hsp90α; source: E. coli, purified (same procedure as for Hsp90αMC); not shown: 6xHis, N-terminal, cleaved
- stoichiometry N [4]: 6

B4: Hsp90α_433–696 (Hsp90αC+) (domain or fragment)
chain: not shown
notes: Hsp90α, human, residues 433-696; The results speak of 'the CTD'; also called the CTD; source: E. coli, purified (same procedure as for Hsp90αMC); not shown: 6xHis, N-terminal, cleaved
- stoichiometry N [4]: 4
